Experimental findings from doi:10.1101/2023.02.19.529138 (bioRxiv, 2023) are described below.

Experiment in all cases: single-molecule photobleaching step analysis
One data set has as its target LeuT (Aquifex aeolicus).
The target in data set [1] is T1, KcsA (Streptomyces lividans), P0A334.
T1 chain: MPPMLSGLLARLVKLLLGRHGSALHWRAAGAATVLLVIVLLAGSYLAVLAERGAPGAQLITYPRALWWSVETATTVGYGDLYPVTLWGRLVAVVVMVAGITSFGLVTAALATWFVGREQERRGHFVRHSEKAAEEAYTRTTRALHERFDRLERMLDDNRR
The settings on record: remark: other sources report otherwise.

Data set [2] concerns the molecule itself.

In the data set with LeuT (Aquifex aeolicus), LeuT (natural protein) registered a percent dimer of 75% and a percent monomer of 14%.

B1: KcsA, P0A334 1-160 (natural protein)
chain: T1 chain
Regarding B1, in data set [1], the stoichiometry N (in general, the number of molecules, sites or subunits per partner or assembly) turned out to be 4.

B2: SemiSWEET (natural protein)
chain: MALIERIGKALEPLMLVMGLISPLATMPQLYKLYVSHSEHALGLSLTTWLLYSFIALLWTIYGIYHKNPTIWVGNCLGFLMYVAMVVGIIAHTGGTY
Take B2: the “stoichiometry N” value in data set [2] was determined as 2.
